The test system of experiment [1] is GFP-14-3-3β and its binding proteins. Briefly: GFP-14-3-3β co-IP with LC-MS/MS label-free quantification, untreated versus PP1c-treated. Further details: species or system human. The settings on record: PP1 vs untreated; label-free quantification.
The subject of experiment [2] is GFP-14-3-3β. The experiment can be described thus: GFP-14-3-3β co-IP with LC-MS/MS, untreated GFP-14-3-3β versus GFP control (14-3-3 interactome). Format: binding, human. The settings on record: untreated vs GFP; label-free quantification.

B1: ASPH (protein, UniProt Q12797 1-758, looked up)
Aspartyl/asparaginyl …: MAQRKNAKSSGNSSSSGSGSGSTSAGSSSPGARRETKHGGHKNGRKGGLSGTSFFTWFMVIALLGVWTSVAVVWFDLVDYEEVLGKLGIYDADGDGDFDVDDAKVLLGLKERSTSEPAVPPEEAEPHTEPEEQVPVEAEPQNIEDEAKEQIQSLLHEMVHAEHVEGEDLQQEDGPTGEPQQEDDEFLMATDVDDRFETLEPEVSHEETEHSYHVEETVSQDCNQDMEEMMSEQENPDSSEPVVEDERLHHDTDDVTYQVYEEQAVYEPLENEGIEITEVTAPPEDNPVEDSQVIVEEVSIFPVEEQQEVPPETNRKTDDPEQKAKVKKKKPKLLNKFDKTIKAELDAAEKLRKRGKIEEAVNAFKELVRKYPQSPRARYGKAQCEDDLAEKRRSNEVLRGAIETYQEVASLPDVPADLLKLSLKRRSDRQQFLGHMRGSLLTLQRLVQLFPNDTSLKNDLGVGYLLIGDNDNAKKVYEEVLSVTPNDGFAKVHYGFILKAQNKIAESIPYLKEGIESGDPGTDDGRFYFHLGDAMQRVGNKEAYKWYELGHKRGHFASVWQRSLYNVNGLKAQPWWTPKETGYTELVKSLERNWKLIRDEGLAVMDKAKGLFLPEDENLREKGDWSQFTLWQQGRRNENACKGAPKTCTLLEKFPETTGCRRGQIKYSIMHPGTHVWPHTGPTNCRLRMHLGLVIPKEGCKIRCANETKTWEEGKVLIFDDSFEHEVWQDASSFRLIFIVDVWHPELTPQQRRSLPAI
For B1, in experiment [1], the “Difference (log2), PP1 vs untreated” value is 0.7413 log2. In experiment [2], the “Difference (log2), untreated vs GFP” value turned out to be 0.9544 log2.

B2: ATXN2L (protein, UniProt Q8WWM7 1-1075, looked up)
Ataxin-2-like protein: MLKPQPLQQPSQPQQPPPTQQAVARRPPGGTSPPNGGLPGPLATSAAPPGPPAAASPCLGPVAAAGSGLRRGAEGILAPQPPPPQQHQERPGAAAIGSARGQSTGKGPPQSPVFEGVYNNSRMLHFLTAVVGSTCDVKVKNGTTYEGIFKTLSSKFELAVDAVHRKASEPAGGPRREDIVDTMVFKPSDVMLVHFRNVDFNYATKDKFTDSAIAMNSKVNGEHKEKVLQRWEGGDSNSDDYDLESDMSNGWDPNEMFKFNEENYGVKTTYDSSLSSYTVPLEKDNSEEFRQRELRAAQLAREIESSPQYRLRIAMENDDGRTEEEKHSAVQRQGSGRESPSLASREGKYIPLPQRVREGPRGGVRCSSSRGGRPGLSSLPPRGPHHLDNSSPGPGSEARGINGGPSRMSPKAQRPLRGAKTLSSPSNRPSGETSVPPPPAVGRMYPPRSPKSAAPAPISASCPEPPIGSAVPTSSASIPVTSSVSDPGVGSISPASPKISLAPTDVKELSTKEPGRTLEPQELARIAGKVPGLQNEQKRFQLEELRKFGAQFKLQPSSSPENSLDPFPPRILKEEPKGKEKEVDGLLTSEPMGSPVSSKTESVSDKEDKPPLAPSGGTEGPEQPPPPCPSQTGSPPVGLIKGEDKDEGPVAEQVKKSTLNPNAKEFNPTKPLLSVNKSTSTPTSPGPRTHSTPSIPVLTAGQSGLYSPQYISYIPQIHMGPAVQAPQMYPYPVSNSVPGQQGKYRGAKGSLPPQRSDQHQPASAPPMMQAAAAAGPPLVAATPYSSYIPYNPQQFPGQPAMMQPMAHYPSQPVFAPMLQSNPRMLTSGSHPQAIVSSSTPQYPSAEQPTPQALYATVHQSYPHHATQLHAHQPQPATTPTGSQPQSQHAAPSPVQHQAGQAPHLGSGQPQQNLYHPGALTGTPPSLPPGPSAQSPQSSFPQPAAVYAIHHQQLPHGFTNMAHVTQAHVQTGITAAPPPHPGAPHPPQVMLLHPPQSHGGPPQGAVPQSGVPALSASTPSPYPYIGHPQGEQPGQAPGFPGGADDRIREFSLAGGIWHGRAEGLQVGQDARVLGGE
Regarding B2, the “Difference (log2), PP1 vs untreated” value in experiment [1] was found to be 0.7492 log2. In addition, in experiment [2], the “Difference (log2), untreated vs GFP” value is on record as 0.1548 log2.

B3: MISP (protein, UniProt Q8IVT2 1-679, looked up)
Mitotic interactor and …: MDRVTRYPILGIPQAHRGTGLVLDGDTSYTYHLVCMGPEASGWGQDEPQTWPTDHRAQQGVQRQGVSYSVHAYTGQPSPRGLHSENREDEGWQVYRLGARDAHQGRPTWALRPEDGEDKEMKTYRLDAGDADPRRLCDLERERWAVIQGQAVRKSSTVATLQGTPDHGDPRTPGPPRSTPLEENVVDREQIDFLAARQQFLSLEQANKGAPHSSPARGTPAGTTPGASQAPKAFNKPHLANGHVVPIKPQVKGVVREENKVRAVPTWASVQVVDDPGSLASVESPGTPKETPIEREIRLAQEREADLREQRGLRQATDHQELVEIPTRPLLTKLSLITAPRRERGRPSLYVQRDIVQETQREEDHRREGLHVGRASTPDWVSEGPQPGLRRALSSDSILSPAPDARAADPAPEVRKVNRIPPDAYQPYLSPGTPQLEFSAFGAFGKPSSLSTAEAKAATSPKATMSPRHLSESSGKPLSTKQEASKPPRGCPQANRGVVRWEYFRLRPLRFRAPDEPQQAQVPHVWGWEVAGAPALRLQKSQSSDLLERERESVLRREQEVAEERRNALFPEVFSPTPDENSDQNSRSSSQASGITGSYSVSESPFFSPIHLHSNVAWTVEDPVDSAPPGQRKKEQWYAGINPSDGINSEVLEAIRVTRHKNAMAERWESRIYASEEDD
As for B3, the “Difference (log2), PP1 vs untreated” value in experiment [1] worked out at 0.7397 log2. In experiment [2], the “Difference (log2), untreated vs GFP” value is recorded as -0.2245 log2.

B4: FLOT2 (protein, UniProt Q14254 2-428, looked up)
Flotillin-2: GNCHTVGPNEALVVSGGCCGSDYKQYVFGGWAWAWWCISDTQRISLEIMTLQPRCEDVETAEGVALTVTGVAQVKIMTEKELLAVACEQFLGKNVQDIKNVVLQTLEGHLRSILGTLTVEQIYQDRDQFAKLVREVAAPDVGRMGIEILSFTIKDVYDKVDYLSSLGKTQTAVVQRDADIGVAEAERDAGIREAECKKEMLDVKFMADTKIADSKRAFELQKSAFSEEVNIKTAEAQLAYELQGAREQQKIRQEEIEIEVVQRKKQIAVEAQEILRTDKELIATVRRPAEAEAHRIQQIAEGEKVKQVLLAQAEAEKIRKIGEAEAAVIEAMGKAEAERMKLKAEAYQKYGDAAKMALVLEALPQIAAKIAAPLTKVDEIVVLSGDNSKVTSEVNRLLAELPASVHALTGVDLSKIPLIKKATGVQV
For B4, the “Difference (log2), PP1 vs untreated” value in experiment [1] came out at 0.7666 log2. Further, in experiment [2], the “Difference (log2), untreated vs GFP” value is on record as -0.7491 log2.

B5: C4BPA (protein, UniProt P04003 49-597, looked up)
C4b-binding protein alpha …: NCGPPPTLSFAAPMDITLTETRFKTGTTLKYTCLPGYVRSHSTQTLTCNSDGEWVYNTFCIYKRCRHPGELRNGQVEIKTDLSFGSQIEFSCSEGFFLIGSTTSRCEVQDRGVGWSHPLPQCEIVKCKPPPDIRNGRHSGEENFYAYGFSVTYSCDPRFSLLGHASISCTVENETIGVWRPSPPTCEKITCRKPDVSHGEMVSGFGPIYNYKDTIVFKCQKGFVLRGSSVIHCDADSKWNPSPPACEPNSCINLPDIPHASWETYPRPTKEDVYVVGTVLRYRCHPGYKPTTDEPTTVICQKNLRWTPYQGCEALCCPEPKLNNGEITQHRKSRPANHCVYFYGDEISFSCHETSRFSAICQGDGTWSPRTPSCGDICNFPPKIAHGHYKQSSSYSFFKEEIIYECDKGYILVGQAKLSCSYSHWSAPAPQCKALCRKPELVNGRLSVDKDQYVEPENVTIQCDSGYGVVGPQSITCSGNRTWYPEVPKCEWETPEGCEQVLTGKRLMQCLPNPEDVKMALEVYKLSLEIEQLELQRDSARQSTLDKEL
For the molecule B5, the “Difference (log2), PP1 vs untreated” value in experiment [1] is on record as 0.7487 log2. Moreover, the “Difference (log2), untreated vs GFP” value in experiment [2] is given as -1.682 log2.

B6: HNRNPF (protein, UniProt P52597 1-415, looked up)
Heterogeneous nuclear …: MMLGPEGGEGFVVKLRGLPWSCSVEDVQNFLSDCTIHDGAAGVHFIYTREGRQSGEAFVELGSEDDVKMALKKDRESMGHRYIEVFKSHRTEMDWVLKHSGPNSADSANDGFVRLRGLPFGCTKEEIVQFFSGLEIVPNGITLPVDPEGKITGEAFVQFASQELAEKALGKHKERIGHRYIEVFKSSQEEVRSYSDPPLKFMSVQRPGPYDRPGTARRYIGIVKQAGLERMRPGAYSTGYGGYEEYSGLSDGYGFTTDLFGRDLSYCLSGMYDHRYGDSEFTVQSTTGHCVHMRGLPYKATENDIYNFFSPLNPVRVHIEIGPDGRVTGEADVEFATHEEAVAAMSKDRANMQHRYIELFLNSTTGASNGAYSSQVMQGMGVSAAQATYSGLESQSVSGCYGAGYSGQNSMGGYD
Take B6: in experiment [1], the “Difference (log2), PP1 vs untreated” value came out at 0.766 log2. Moreover, the “Difference (log2), untreated vs GFP” value in experiment [2] was -0.6522 log2.

B7: ARHGEF2 (protein, UniProt Q92974 1-986, looked up)
Rho guanine nucleotide …: MSRIESLTRARIDRSRELASKTREKEKMKEAKDARYTNGHLFTTISVSGMTMCYACNKSITAKEALICPTCNVTIHNRCKDTLANCTKVKQKQQKAALLKNNTALQSVSLRSKTTIRERPSSAIYPSDSFRQSLLGSRRGRSSLSLAKSVSTTNIAGHFNDESPLGLRRILSQSTDSLNMRNRTLSVESLIDEAEVIYSELMSDFEMDEKDFAADSWSLAVDSSFLQQHKKEVMKQQDVIYELIQTELHHVRTLKIMTRLFRTGMLEELHLEPGVVQGLFPCVDELSDIHTRFLSQLLERRRQALCPGSTRNFVIHRLGDLLISQFSGPSAEQMCKTYSEFCSRHSKALKLYKELYARDKRFQQFIRKVTRPAVLKRHGVQECILLVTQRITKYPLLISRILQHSHGIEEERQDLTTALGLVKELLSNVDEGIYQLEKGARLQEIYNRMDPRAQTPVPGKGPFGREELLRRKLIHDGCLLWKTATGRFKDVLVLLMTDVLVFLQEKDQKYIFPTLDKPSVVSLQNLIVRDIANQEKGMFLISAAPPEMYEVHTASRDDRSTWIRVIQQSVRTCPSREDFPLIETEDEAYLRRIKMELQQKDRALVELLREKVGLFAEMTHFQAEEDGGSGMALPTLPRGLFRSESLESPRGERLLQDAIREVEGLKDLLVGPGVELLLTPREPALPLEPDSGGNTSPGVTANGEARTFNGSIELCRADSDSSQRDRNGNQLRSPQEEALQRLVNLYGLLHGLQAAVAQQDTLMEARFPEGPERREKLCRANSRDGEAGRAGAAPVAPEKQATELALLQRQHALLQEELRRCRRLGEERATEAGSLEARLRESEQARALLEREAEEARRQLAALGQTEPLPAEAPWARRPVDPRRRSLPAGDALYLSFNPPQPSRGTDRLDLPVTTRSVHRNFEDRERQELGSPEERLQDSSDPDTGSEEEGSSRLSPPHSPRDFTRMQDIPEETESRDGEAVASES
As for B7, in experiment [1], the “Difference (log2), PP1 vs untreated” value is 0.772 log2. Also, the “Difference (log2), untreated vs GFP” value in experiment [2] was found to be 1.2 log2.

B8: NUFIP2 (protein, UniProt Q7Z417 1-695, looked up)
FMR1-interacting protein …: MEEKPGQPQPQHHHSHHHPHHHPQQQQQQPHHHHHYYFYNHSHNHHHHHHHQQPHQYLQHGAEGSPKAQPKPLKHEQKHTLQQHQETPKKKTGYGELNGNAGEREISLKNLSSDEATNPISRVLNGNQQVVDTSLKQTVKANTFGKAGIKTKNFIQKNSMDKKNGKSYENKSGENQSVDKSDTIPIPNGVVTNNSGYITNGYMGKGADNDGSGSESGYTTPKKRKARRNSAKGCENLNIVQDKIMQQETSVPTLKQGLETFKPDYSEQKGNRVDGSKPIWKYETGPGGTSRGKPAVGDMLRKSSDSKPGVSSKKFDDRPKGKHASAVASKEDSWTLFKPPPVFPVDNSSAKIVPKISYASKVKENLNKTIQNSSVSPTSSSSSSSSTGETQTQSSSRLSQVPMSALKSVTSANFSNGPVLAGTDGNVYPPGGQPLLTTAANTLTPISSGTDSVLQDMSLTSAAVEQIKTSLFIYPSNMQTMLLSTAQVDLPSQTDQQNLGDIFQNQWGLSFINEPSAGPETVTGKSSEHKVMEVTFQGEYPATLVSQGAEIIPSGTEHPVFPKAYELEKRTSPQVLGSILKSGTTSESGALSLEPSHIGDLQKADTSSQGALVFLSKDYEIESQNPLASPTNTLLGSAKEQRYQRGLERNDSWGSFDLRAAIVYHTKEMESIWNLQKQDPKRIITYNEAMDSPDQ
In the case of B8, in experiment [1], the “Difference (log2), PP1 vs untreated” value was 0.7682 log2. Moreover, the “Difference (log2), untreated vs GFP” value in experiment [2] is listed as 0.8112 log2.

(Values after article PMC7367873, “Dissecting the sequence determinants for dephosphorylation by the catalytic subunits of phosphatases PP1 and PP2A” (Nature Communications, 2020).)
